# From article PMC10786891, “Massively parallel profiling of RNA-targeting CRISPR-Cas13d”
# B1: target 1 G15C,A16C (mixed)
# RNA 1: CACCCGUGCAAAAAUGCAGGGGUCUAAAACUGAGCGGAUAACCUCUCUAUGG
# RNA 2: GGGAAUGGAUCCACAUCUACGAAUUCGUACCAUAGCCAGGUUAUCCGCUCACCGAGAUCGGAAGAGCACACGU
# B2: target 1 MT 5'PFS GUA 3'PFS AGA (mixed)
# RNA 1: CACCCGUGCAAAAAUGCAGGGGUCUAAAACUGAGCGGAUAACCUCUCUAUGG
# RNA 2: GGGAAUGGAUCCACAUCUACGAAUUCGUACCAUAGAGAGGUUAUCCGCUCAAGAAGAUCGGAAGAGCACACGU
# B3: target 1 MT 5'PFS CCU 3'PFS UAG (mixed)
# RNA 1: CACCCGUGCAAAAAUGCAGGGGUCUAAAACUGAGCGGAUAACCUCUCUAUGG
# RNA 2: GGGAAUGGAUCCACAUCUACGAAUUCCCUCCAUAGAGAGGUUAUCCGCUCAUAGAGAUCGGAAGAGCACACGU
# B4: target 1 MT 5'PFS GUA 3'PFS AGC (mixed)
# RNA 1: CACCCGUGCAAAAAUGCAGGGGUCUAAAACUGAGCGGAUAACCUCUCUAUGG
# RNA 2: GGGAAUGGAUCCACAUCUACGAAUUCGUACCAUAGAGAGGUUAUCCGCUCAAGCAGAUCGGAAGAGCACACGU
# B5: target 1 MT 5'PFS CCU 3'PFS UAC (mixed)
# RNA 1: CACCCGUGCAAAAAUGCAGGGGUCUAAAACUGAGCGGAUAACCUCUCUAUGG
# RNA 2: GGGAAUGGAUCCACAUCUACGAAUUCCCUCCAUAGAGAGGUUAUCCGCUCAUACAGAUCGGAAGAGCACACGU
# B6: target 1 MT 5'PFS GUA 3'PFS AGG (mixed)
# RNA 1: CACCCGUGCAAAAAUGCAGGGGUCUAAAACUGAGCGGAUAACCUCUCUAUGG
# RNA 2: GGGAAUGGAUCCACAUCUACGAAUUCGUACCAUAGAGAGGUUAUCCGCUCAAGGAGAUCGGAAGAGCACACGU
# B7: target 1 MT 5'PFS CAA 3'PFS AGU (mixed)
# RNA 1: CACCCGUGCAAAAAUGCAGGGGUCUAAAACUGAGCGGAUAACCUCUCUAUGG
# RNA 2: GGGAAUGGAUCCACAUCUACGAAUUCCAACCAUAGAGAGGUUAUCCGCUCAAGUAGAUCGGAAGAGCACACGU
# B8: target 1 MT 5'PFS UUG 3'PFS CAU (mixed)
# RNA 1: CACCCGUGCAAAAAUGCAGGGGUCUAAAACUGAGCGGAUAACCUCUCUAUGG
# RNA 2: GGGAAUGGAUCCACAUCUACGAAUUCUUGCCAUAGAGAGGUUAUCCGCUCACAUAGAUCGGAAGAGCACACGU
# B9: target 1 MT 5'PFS UUG 3'PFS CAC (mixed)
# RNA 1: CACCCGUGCAAAAAUGCAGGGGUCUAAAACUGAGCGGAUAACCUCUCUAUGG
# RNA 2: GGGAAUGGAUCCACAUCUACGAAUUCUUGCCAUAGAGAGGUUAUCCGCUCACACAGAUCGGAAGAGCACACGU
# B10: target 1 MT 5'PFS UUG 3'PFS CAA (mixed)
# RNA 1: CACCCGUGCAAAAAUGCAGGGGUCUAAAACUGAGCGGAUAACCUCUCUAUGG
# RNA 2: GGGAAUGGAUCCACAUCUACGAAUUCUUGCCAUAGAGAGGUUAUCCGCUCACAAAGAUCGGAAGAGCACACGU
# B11: target 1 MT 5'PFS CUU 3'PFS CAC (mixed)
# RNA 1: CACCCGUGCAAAAAUGCAGGGGUCUAAAACUGAGCGGAUAACCUCUCUAUGG
# RNA 2: GGGAAUGGAUCCACAUCUACGAAUUCCUUCCAUAGAGAGGUUAUCCGCUCACACAGAUCGGAAGAGCACACGU
# B12: target 1 C4U,U8G (mixed)
# RNA 1: CACCCGUGCAAAAAUGCAGGGGUCUAAAACUGAGCGGAUAACCUCUCUAUGG
# RNA 2: GGGAAUGGAUCCACAUCUACGAAUUCGUACCAUAGAGAGGUUAGCCGUUCACCGAGAUCGGAAGAGCACACGU
# B13: target 1 MT 5'PFS GUG 3'PFS GGU (mixed)
# RNA 1: CACCCGUGCAAAAAUGCAGGGGUCUAAAACUGAGCGGAUAACCUCUCUAUGG
# RNA 2: GGGAAUGGAUCCACAUCUACGAAUUCGUGCCAUAGAGAGGUUAUCCGCUCAGGUAGAUCGGAAGAGCACACGU
# B14: target 1 MT 5'PFS AGA 3'PFS UGA (mixed)
# RNA 1: CACCCGUGCAAAAAUGCAGGGGUCUAAAACUGAGCGGAUAACCUCUCUAUGG
# RNA 2: GGGAAUGGAUCCACAUCUACGAAUUCAGACCAUAGAGAGGUUAUCCGCUCAUGAAGAUCGGAAGAGCACACGU
# B15: target 1 MT 5'PFS AGA 3'PFS UGC (mixed)
# RNA 1: CACCCGUGCAAAAAUGCAGGGGUCUAAAACUGAGCGGAUAACCUCUCUAUGG
# RNA 2: GGGAAUGGAUCCACAUCUACGAAUUCAGACCAUAGAGAGGUUAUCCGCUCAUGCAGAUCGGAAGAGCACACGU
# B16: target 1 MT 5'PFS AGA 3'PFS UGU (mixed)
# RNA 1: CACCCGUGCAAAAAUGCAGGGGUCUAAAACUGAGCGGAUAACCUCUCUAUGG
# RNA 2: GGGAAUGGAUCCACAUCUACGAAUUCAGACCAUAGAGAGGUUAUCCGCUCAUGUAGAUCGGAAGAGCACACGU
# B17: target 1 MT 5'PFS GUG 3'PFS GGG (mixed)
# RNA 1: CACCCGUGCAAAAAUGCAGGGGUCUAAAACUGAGCGGAUAACCUCUCUAUGG
# RNA 2: GGGAAUGGAUCCACAUCUACGAAUUCGUGCCAUAGAGAGGUUAUCCGCUCAGGGAGAUCGGAAGAGCACACGU
# B18: target 1 MT 5'PFS CCG 3'PFS AUA (mixed)
# RNA 1: CACCCGUGCAAAAAUGCAGGGGUCUAAAACUGAGCGGAUAACCUCUCUAUGG
# RNA 2: GGGAAUGGAUCCACAUCUACGAAUUCCCGCCAUAGAGAGGUUAUCCGCUCAAUAAGAUCGGAAGAGCACACGU
# B19: target 1 MT 5'PFS GUG 3'PFS GGC (mixed)
# RNA 1: CACCCGUGCAAAAAUGCAGGGGUCUAAAACUGAGCGGAUAACCUCUCUAUGG
# RNA 2: GGGAAUGGAUCCACAUCUACGAAUUCGUGCCAUAGAGAGGUUAUCCGCUCAGGCAGAUCGGAAGAGCACACGU
# B20: target 1 MT 5'PFS AAU 3'PFS UAG (mixed)
# RNA 1: CACCCGUGCAAAAAUGCAGGGGUCUAAAACUGAGCGGAUAACCUCUCUAUGG
# RNA 2: GGGAAUGGAUCCACAUCUACGAAUUCAAUCCAUAGAGAGGUUAUCCGCUCAUAGAGAUCGGAAGAGCACACGU
# B21: target 1 MT 5'PFS AAU 3'PFS UAU (mixed)
# RNA 1: CACCCGUGCAAAAAUGCAGGGGUCUAAAACUGAGCGGAUAACCUCUCUAUGG
# RNA 2: GGGAAUGGAUCCACAUCUACGAAUUCAAUCCAUAGAGAGGUUAUCCGCUCAUAUAGAUCGGAAGAGCACACGU
# B22: target 1 MT 5'PFS GUC 3'PFS CUU (mixed)
# RNA 1: CACCCGUGCAAAAAUGCAGGGGUCUAAAACUGAGCGGAUAACCUCUCUAUGG
# RNA 2: GGGAAUGGAUCCACAUCUACGAAUUCGUCCCAUAGAGAGGUUAUCCGCUCACUUAGAUCGGAAGAGCACACGU
# B23: target 1 C6A,C22U (mixed)
# RNA 1: CACCCGUGCAAAAAUGCAGGGGUCUAAAACUGAGCGGAUAACCUCUCUAUGG
# RNA 2: GGGAAUGGAUCCACAUCUACGAAUUCGUAUCAUAGAGAGGUUAUCAGCUCACCGAGAUCGGAAGAGCACACGU
# B24: target 1 MT 5'PFS GUC 3'PFS CUG (mixed)
# RNA 1: CACCCGUGCAAAAAUGCAGGGGUCUAAAACUGAGCGGAUAACCUCUCUAUGG
# RNA 2: GGGAAUGGAUCCACAUCUACGAAUUCGUCCCAUAGAGAGGUUAUCCGCUCACUGAGAUCGGAAGAGCACACGU
# B25: target 1 MT 5'PFS GUC 3'PFS CUA (mixed)
# RNA 1: CACCCGUGCAAAAAUGCAGGGGUCUAAAACUGAGCGGAUAACCUCUCUAUGG
# RNA 2: GGGAAUGGAUCCACAUCUACGAAUUCGUCCCAUAGAGAGGUUAUCCGCUCACUAAGAUCGGAAGAGCACACGU
# B26: target 1 MT 5'PFS GUC 3'PFS CUC (mixed)
# RNA 1: CACCCGUGCAAAAAUGCAGGGGUCUAAAACUGAGCGGAUAACCUCUCUAUGG
# RNA 2: GGGAAUGGAUCCACAUCUACGAAUUCGUCCCAUAGAGAGGUUAUCCGCUCACUCAGAUCGGAAGAGCACACGU
# B27: target 1 MT 5'PFS ACA 3'PFS AGA (mixed)
# RNA 1: CACCCGUGCAAAAAUGCAGGGGUCUAAAACUGAGCGGAUAACCUCUCUAUGG
# RNA 2: GGGAAUGGAUCCACAUCUACGAAUUCACACCAUAGAGAGGUUAUCCGCUCAAGAAGAUCGGAAGAGCACACGU
# B28: target 1 MT 5'PFS CAG 3'PFS CCC (mixed)
# RNA 1: CACCCGUGCAAAAAUGCAGGGGUCUAAAACUGAGCGGAUAACCUCUCUAUGG
# RNA 2: GGGAAUGGAUCCACAUCUACGAAUUCCAGCCAUAGAGAGGUUAUCCGCUCACCCAGAUCGGAAGAGCACACGU
# Biological target: T1, EsCas13d, nuclease-dead (Eubacterium siraeum, UniProt B0MS50, R295A;H300A;R849A;H854A)
# T1 sequence: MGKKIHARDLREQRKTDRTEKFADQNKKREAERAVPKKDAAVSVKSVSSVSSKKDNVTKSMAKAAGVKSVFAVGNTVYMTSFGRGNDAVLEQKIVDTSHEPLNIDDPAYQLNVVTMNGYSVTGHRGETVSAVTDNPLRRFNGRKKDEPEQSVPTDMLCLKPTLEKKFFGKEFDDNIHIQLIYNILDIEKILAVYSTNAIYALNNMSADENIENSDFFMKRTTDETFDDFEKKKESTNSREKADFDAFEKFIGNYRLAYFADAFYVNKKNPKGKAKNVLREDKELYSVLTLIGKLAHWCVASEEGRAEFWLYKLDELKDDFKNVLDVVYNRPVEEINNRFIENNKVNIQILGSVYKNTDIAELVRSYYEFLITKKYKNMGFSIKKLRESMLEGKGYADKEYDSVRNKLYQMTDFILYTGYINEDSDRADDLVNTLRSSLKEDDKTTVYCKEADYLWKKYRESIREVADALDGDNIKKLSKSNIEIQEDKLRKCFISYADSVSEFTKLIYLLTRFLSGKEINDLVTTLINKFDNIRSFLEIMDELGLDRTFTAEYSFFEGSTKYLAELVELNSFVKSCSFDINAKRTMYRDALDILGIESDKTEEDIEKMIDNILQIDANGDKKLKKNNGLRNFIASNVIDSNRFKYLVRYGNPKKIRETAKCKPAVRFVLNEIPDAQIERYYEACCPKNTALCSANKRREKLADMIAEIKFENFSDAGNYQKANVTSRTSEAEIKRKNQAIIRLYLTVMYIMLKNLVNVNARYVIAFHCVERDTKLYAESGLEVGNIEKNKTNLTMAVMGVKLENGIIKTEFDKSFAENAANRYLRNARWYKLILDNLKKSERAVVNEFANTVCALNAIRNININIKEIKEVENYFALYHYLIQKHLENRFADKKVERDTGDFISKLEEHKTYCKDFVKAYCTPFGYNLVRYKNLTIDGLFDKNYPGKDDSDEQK
# Experiment: crRNA (strand 1, pre-loaded); Mg2+; 40 mM Tris-HCl pH 7.5, 150 mM NaCl, 6 mM MgCl2, 1 mM DTT, 0.1% Tween-20, 0.2 mg/ml BSA; 25 C; 10 min per concentration, then washed
# Settings: tags: His6-TwinStrep-SUMO cleaved; N-terminal SNAP kept (SNAP-Surface 488); label: 3' end held by stalled T7 RNA polymerase
row,Binder,Kd
1,B1,~90 nM
2,B2,12.7 ± 0.8 nM
3,B3,28 ± 11 nM
4,B4,6.27 ± 0.515 nM
5,B5,13.4 ± 2.7 nM
6,B6,22.9 ± 1.4 nM
7,B7,~52 nM
8,B8,41 ± 13.5 nM
9,B9,~85 nM
10,B10,~55 nM
11,B11,47 ± 19 nM
12,B12,14.1 ± 0.8 nM
13,B13,25.6 ± 2.7 nM
14,B14,90 ± 40 nM
15,B15,~53.5 nM
16,B16,110 ± 50 nM
17,B17,32.9 ± 2.9 nM
18,B18,5.1 ± 1.45 nM
19,B19,14 ± 2.25 nM
20,B20,41.5 ± 20 nM
21,B21,72 ± 27 nM
22,B22,13.8 ± 2.6 nM
23,B23,11.6 ± 0.7 nM
24,B24,12.8 ± 2.9 nM
25,B25,17.5 ± 4 nM
26,B26,39.5 ± 12.5 nM
27,B27,66.5 ± 24 nM
28,B28,~49 nM
